Reference: patent US10934529B2, “Three dimensional hydrogels for culturing organoids” (Ecole Polytechnique Fèdèrale de Lausanne, priority 2015, dated 2021)
“Also recorded” adds a separate entry of the source.

System: intestinal stem cells (ISCs)
Test: ISC colony formation efficiency / ISC expansion in hydrogels
Assay type: cell-based, mouse
Conditions: PEG-RGD, Wnt3a-containing medium
Protocol: Freshly isolated crypts or single cells from dissociated colonies were added to the Matrigel or hydrogels precursor solution and cast in 20-μL droplets at the bottom of wells in 24-well plate. […] For single cell culture, thiazovivin (2.5 μM; Stemgent) and Jagged-1 peptide ([…]; Anaspec) was included in the medium during the first two days. Broad spectrum protease inhibitor, GM6001, was added to the medium while embedding the cells in PEG hydrogels. Every two days the growth factors were replenished and the full medium was changed.
To quantify the colony formation efficiency of single embedded ISCs, phase contrast z-stacks spanning the entire thickness of the cell-laden Matrigel or PEG gels were collected (Zeiss Axio Observer Z1) at 5 different locations within the gels. The Cell Counter plugin in ImageJ (NIH) was used to quantify the fraction of cells which had formed colonies at day 4 after seeding. To assess the viability of intestinal tissue fragments embedded in PEG, phase contrast images of the entire gel were collected. The fraction of viable tissues was estimated based upon the epithelial morphology: tissues that featured an epithelial monolayer surrounding a central lumen after 24 h of embedding were deemed viable.

B1: Wnt3a: recombinant Wnt3a (protein, UniProt P56704 19-352, looked up)
Protein Wnt-3a: SYPIWWSLAVGPQYSSLGSQPILCASIPGLVPKQLRFCRNYVEIMPSVAEGIKIGIQECQHQFRGRRWNCTTVHDSLAIFGPVLDKATRESAFVHAIASAGVAFAVTRSCAEGTAAICGCSSRHQGSPGKGWKWGGCSEDIEFGGMVSREFADARENRPDARSAMNRHNNEAGRQAIASHMHLKCKCHGLSGSCEVKTCWWSQPDFRAIGDFLKDKYDSASEMVVEKHRESRGWVETLRPRYTYFKVPTERDLVYYEASPNFCEPNPETGSFGTRDRTCNVSSHGIDGCDLLCCGRGHNARAERRREKCRCVFHWCCYVSCQECTRVYDVHTCK
  ISC culture with Wnt3a instead of CHIR99021 and valproic acid: successfully cultured; also recorded: can successfully replace CHIR99021 and VPA
